# Assay results: paper PMC6024076, “mRNA Deadenylation Is Coupled to Translation Rates by the Differential Activities of Ccr4-Not Nucleases”
# T1: Pab1 (Schizosaccharomyces pombe, UniProt P31209 80-653)
# T1 sequence: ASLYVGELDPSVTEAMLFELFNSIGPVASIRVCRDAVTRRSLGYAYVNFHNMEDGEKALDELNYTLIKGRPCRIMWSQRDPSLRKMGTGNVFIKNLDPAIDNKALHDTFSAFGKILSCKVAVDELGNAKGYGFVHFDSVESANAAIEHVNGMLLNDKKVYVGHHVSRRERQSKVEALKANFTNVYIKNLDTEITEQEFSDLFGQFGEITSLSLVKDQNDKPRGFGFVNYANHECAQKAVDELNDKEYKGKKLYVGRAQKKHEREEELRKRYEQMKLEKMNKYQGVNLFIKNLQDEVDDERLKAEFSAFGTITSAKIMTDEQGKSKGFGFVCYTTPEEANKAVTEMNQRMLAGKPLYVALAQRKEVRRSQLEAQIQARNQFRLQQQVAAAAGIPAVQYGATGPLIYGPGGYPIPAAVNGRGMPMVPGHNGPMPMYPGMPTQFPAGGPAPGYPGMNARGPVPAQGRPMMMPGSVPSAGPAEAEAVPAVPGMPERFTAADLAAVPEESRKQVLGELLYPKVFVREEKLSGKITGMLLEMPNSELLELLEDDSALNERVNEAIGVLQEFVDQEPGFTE
# Tests used:
# [1] = target: GST-Pab1 (S. pombe poly(A)-binding protein Pab1) (S. pombe) (UniProt P31209)
# Pab1 [2] = target: T1, Pab1; test: fluorescence polarization; FP: 20 mM HEPES pH 7.4, 150 mM NaCl, 22 C, 2 h, 0.2 nM RNA; switchSENSE: same buffer + 0.001% Tween-20, 25 nM Pab1, 20 C; EMSA: 20 mM PIPES pH 6.8, 10 mM KCl, 90 mM NaCl, 2 mM Mg(OAc)2, 0.1 mM TCEP, 22 C, 200 nM RNA; details: protein: recombinant; tags: N-terminal GST cleaved with 3C protease; label: 5' 6-FAM
# Pab1 [3] = target: T1, Pab1; test: fluorescence polarization; one-site quadratic fit; printed label order scrambled, assigned by koff/kon; FP: 20 mM HEPES pH 7.4, 150 mM NaCl, 22 C, 2 h, 0.2 nM RNA; switchSENSE: same buffer + 0.001% Tween-20, 25 nM Pab1, 20 C; EMSA: 20 mM PIPES pH 6.8, 10 mM KCl, 90 mM NaCl, 2 mM Mg(OAc)2, 0.1 mM TCEP, 22 C, 200 nM RNA; details: protein: recombinant; tags: N-terminal GST cleaved with 3C protease; label: 5' 6-FAM
Molecule,Kd (Pab1 [2]) [nM],further results
"S. pombe Ccr4-Not complex (WT), seven core subunits (from UniProt O74874 1-690; O74856 1-335; P87112 1-2100; P87240 1-306; O13870 1-640; Q92368 1-283)",–,average rate of deadenylation of 20-mer-A60 RNA by purified Ccr4-Not with Pab1 (two molecules per RNA; GST cleaved) against without Pab1 [1]: 3 fold
AAAAAAAAAAAA (ssRNA) [A12],~27,–
AAAAAAAAAAAAAAAAAAAAAAAAAAAAAA (ssRNA) [A30],–,Kd (Pab1 [3]): 0.25 ± 0.03 nM
AAAAAAAAAAAAAAAAAAAAAA (ssRNA) [A22],~0.5,–
